# Measured values from PMC8395313, “Membrane Association Modes of Natural Anticancer Peptides: Mechanistic Details on Helicity, Orientation, and Surface Coverage” (International Journal of Molecular Sciences, 2021).
# Ends that are not written are not given here.
# B1: Temporin-La (peptide)
# peptide: LLRHVVKILEKYL-NH2
# notes: 13 residues; MW = 1622.6 as printed in the methods; also called Tempo-La; TEMPO-LA; source: synthetic peptide (NovoPro Bioscience Inc., Shanghai; purity >= 95%)
# Target: the molecule itself
# Assay: dynamic light scattering; free peptide without lipid; DLS at 20 °C in CD buffer (10 mM Na-phosphate, 100 mM Na2SO4, pH 7.0); the methods give 20 or 40 µM peptide for the DLS samples
protein,measurement,value
B1,binding result,binds
